The numbers were not newly measured in paper PMC2994244, which cites them from elsewhere.

Where two headings read alike, the source gives them in different places.

The target in series [1] is ACP (Escherichia coli) (UniProt P0A6A8).
Series [2] has the same target. This is another data set of the same source.

UniProt P0A6A8, sequence (P0A6A8 2-78): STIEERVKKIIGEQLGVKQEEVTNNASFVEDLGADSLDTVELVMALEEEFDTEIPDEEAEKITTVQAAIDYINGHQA

In the case of KASII (from UniProt P0AAI5), the Kd in the series with ACP (Escherichia coli) [1] was 70 nM.

Regarding KASI (from UniProt P0A953), in the series with ACP (Escherichia coli) [2], the Kd is 180 nM.
